In paper PMC9482650, “Quantitative fragmentomics allow affinity mapping of interactomes” (Nature Communications, 2022):

Legend:
Assay in all cases: holdup assay
Parameters in all cases: key: below the threshold = too weak to quantify, mostly under pKd 3.1 to 4
[1] = biological target: T1, SNTG1, Q9NSN8
T1 sequence (Q9NSN8 52-150, limits assumed, looked up): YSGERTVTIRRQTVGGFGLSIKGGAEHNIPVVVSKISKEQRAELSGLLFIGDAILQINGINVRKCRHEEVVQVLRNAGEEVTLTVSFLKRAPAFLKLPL

[2] = biological target: T2, MPP7, Q5T2T1
T2 sequence (Q5T2T1 134-230, limits assumed, looked up): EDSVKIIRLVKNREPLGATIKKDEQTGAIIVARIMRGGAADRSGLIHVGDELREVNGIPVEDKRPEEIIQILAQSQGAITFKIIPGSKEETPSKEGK

[3] = biological target: NHERF2_2, Q15599
Chain of NHERF2_2, Q15599 (Q15599 142-238): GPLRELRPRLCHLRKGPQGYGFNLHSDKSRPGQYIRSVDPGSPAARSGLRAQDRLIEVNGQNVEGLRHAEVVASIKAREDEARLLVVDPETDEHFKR

[4] = biological target: DLG2_2, Q15700
Chain of DLG2_2, Q15700 (Q15700 189-283): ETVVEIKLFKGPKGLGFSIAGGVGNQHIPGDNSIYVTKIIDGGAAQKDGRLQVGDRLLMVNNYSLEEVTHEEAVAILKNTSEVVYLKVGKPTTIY

[5] = biological target: PARD3_3, Q8TEW0
Chain of PARD3_3, Q8TEW0 (Q8TEW0 582-685): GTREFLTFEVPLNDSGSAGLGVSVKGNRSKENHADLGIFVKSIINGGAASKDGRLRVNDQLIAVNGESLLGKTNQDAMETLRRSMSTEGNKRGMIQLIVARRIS

[6] = biological target: MAGI2_5, Q86UL8
Chain of MAGI2_5, Q86UL8 (Q86UL8 915-1017): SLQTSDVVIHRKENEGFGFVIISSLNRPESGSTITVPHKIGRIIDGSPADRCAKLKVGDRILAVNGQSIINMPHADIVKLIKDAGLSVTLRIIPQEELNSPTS

[7] = biological target: T3, SNTG2, Q9NY99
T3 sequence (Q9NY99 68-166, limits assumed, looked up): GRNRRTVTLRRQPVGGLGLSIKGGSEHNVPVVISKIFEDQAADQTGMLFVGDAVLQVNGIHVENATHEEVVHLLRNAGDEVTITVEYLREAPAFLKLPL

[8] = biological target: T4, HTRA4, P83105
T4 sequence (P83105 378-476, limits assumed, looked up): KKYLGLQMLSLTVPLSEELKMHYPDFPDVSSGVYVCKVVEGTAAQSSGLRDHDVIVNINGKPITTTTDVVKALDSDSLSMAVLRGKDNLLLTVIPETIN

[9] = biological target: ARHGEF12, Q9NZN5-2
Chain of ARHGEF12, Q9NZN5-2 (Q9NZN5 other isoform, or with tags, fused parts or gaps): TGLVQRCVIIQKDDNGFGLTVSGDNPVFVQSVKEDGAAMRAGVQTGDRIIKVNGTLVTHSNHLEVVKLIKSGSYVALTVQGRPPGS

[10] = biological target: IL16_1, Q14005
Chain of IL16_1, Q14005 (Q14005 210-306): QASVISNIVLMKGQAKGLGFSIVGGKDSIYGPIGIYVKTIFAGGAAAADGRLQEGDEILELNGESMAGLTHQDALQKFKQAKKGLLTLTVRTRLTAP

[11] = biological target: NHERF4_1, Q86UT5-2
Chain of NHERF4_1, Q86UT5-2 (Q86UT5 other isoform, or with tags, fused parts or gaps): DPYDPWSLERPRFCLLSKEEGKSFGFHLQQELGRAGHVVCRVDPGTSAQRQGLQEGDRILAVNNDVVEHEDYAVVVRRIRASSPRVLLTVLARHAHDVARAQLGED

[12] = biological target: T5, ARHGEF11, O15085
T5 sequence (O15085 42-136, limits assumed, looked up): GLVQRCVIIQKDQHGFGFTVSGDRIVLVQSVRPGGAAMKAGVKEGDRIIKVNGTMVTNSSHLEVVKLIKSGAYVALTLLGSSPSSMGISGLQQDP

[13] = biological target: Inadl_4, Q8NI35
Chain of Inadl_4, Q8NI35 (Q8NI35 547-651): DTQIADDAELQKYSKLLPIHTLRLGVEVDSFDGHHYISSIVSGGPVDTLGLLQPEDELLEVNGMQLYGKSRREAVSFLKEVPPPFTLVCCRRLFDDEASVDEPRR

[14] = biological target: T6, SIPA1L2, Q9P2F8
T6 sequence (Q9P2F8 945-1036, limits assumed, looked up): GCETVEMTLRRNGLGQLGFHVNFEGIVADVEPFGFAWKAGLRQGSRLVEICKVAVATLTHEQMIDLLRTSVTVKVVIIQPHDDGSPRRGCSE

[15] = biological target: MAST1, Q9Y2H9
Chain of MAST1, Q9Y2H9 (Q9Y2H9 962-1065): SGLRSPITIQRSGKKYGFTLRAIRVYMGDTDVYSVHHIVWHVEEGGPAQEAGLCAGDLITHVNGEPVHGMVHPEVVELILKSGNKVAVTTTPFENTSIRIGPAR

[16] = biological target: SCRIB_2, Q14160
Chain of SCRIB_2, Q14160 (Q14160 857-960): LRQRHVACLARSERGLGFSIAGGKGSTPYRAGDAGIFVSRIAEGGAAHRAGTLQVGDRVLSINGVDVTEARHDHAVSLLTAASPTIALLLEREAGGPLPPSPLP

[17] = biological target: T7, PARD3B_1, Q8TEW8
T7 sequence (Q8TEW8 196-299, limits assumed, looked up): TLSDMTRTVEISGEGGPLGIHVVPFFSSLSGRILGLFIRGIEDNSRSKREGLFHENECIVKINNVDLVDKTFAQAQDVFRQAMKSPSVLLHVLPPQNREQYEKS

[18] = biological target: Inadl_9, Q8NI35
Chain of Inadl_9, Q8NI35 (Q8NI35 1530-1615): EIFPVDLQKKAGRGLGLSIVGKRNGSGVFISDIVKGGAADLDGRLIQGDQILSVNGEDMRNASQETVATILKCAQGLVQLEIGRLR

[19] = biological target: T8, LNX2_3, Q8N448
T8 sequence (Q8N448 463-564, limits assumed, looked up): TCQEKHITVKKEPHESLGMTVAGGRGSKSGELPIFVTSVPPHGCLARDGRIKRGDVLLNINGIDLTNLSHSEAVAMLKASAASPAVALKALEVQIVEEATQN

[20] = biological target: NOS1, P29475
Chain of NOS1, P29475 (P29475 9-101): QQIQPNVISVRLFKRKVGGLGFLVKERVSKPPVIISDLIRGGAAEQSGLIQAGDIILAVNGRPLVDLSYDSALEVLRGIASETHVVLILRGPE

[21] = biological target: T9, SYNJ2BP, P57105
T9 sequence (P57105 8-110, limits assumed, looked up): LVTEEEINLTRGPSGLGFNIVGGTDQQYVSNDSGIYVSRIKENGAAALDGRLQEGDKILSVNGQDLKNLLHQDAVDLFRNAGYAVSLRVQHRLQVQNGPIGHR

[22] = biological target: T10, PCLO, Q9Y6V0
T10 sequence (Q9Y6V0 4491-4600, limits assumed, looked up): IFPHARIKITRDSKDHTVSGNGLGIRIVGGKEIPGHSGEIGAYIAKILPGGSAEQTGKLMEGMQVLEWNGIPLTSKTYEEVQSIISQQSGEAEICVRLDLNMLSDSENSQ

[23] = biological target: Inadl_3, Q8NI35
Chain of Inadl_3, Q8NI35 (Q8NI35 359-469): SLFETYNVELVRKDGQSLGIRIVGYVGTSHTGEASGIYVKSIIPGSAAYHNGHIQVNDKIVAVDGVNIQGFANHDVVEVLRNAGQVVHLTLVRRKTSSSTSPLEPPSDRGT

[24] = biological target: T11, SNTA1, Q13424
T11 sequence (Q13424 82-180, limits assumed, looked up): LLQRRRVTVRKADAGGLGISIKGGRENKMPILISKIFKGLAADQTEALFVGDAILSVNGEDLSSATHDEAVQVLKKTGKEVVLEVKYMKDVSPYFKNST

[25] = biological target: TJP1_2, Q07157
Chain of TJP1_2, Q07157 (Q07157 181-274): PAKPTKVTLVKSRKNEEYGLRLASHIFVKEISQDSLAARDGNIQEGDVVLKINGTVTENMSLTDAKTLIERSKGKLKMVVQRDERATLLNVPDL

[26] = biological target: T12, HTRA3, P83110
T12 sequence (P83110 354-453, limits assumed, looked up): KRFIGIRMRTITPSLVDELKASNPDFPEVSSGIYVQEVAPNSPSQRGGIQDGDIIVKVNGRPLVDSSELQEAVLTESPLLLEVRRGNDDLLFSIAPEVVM

[27] = plain residues with an end cap or a label only (N-terminal biotin on a linker: ado-ado)
[28] = modified: phospho on T at position -2 from the C-terminal residue

B1: CCDC134, Q9H6E4 (peptide)
chain: PRISRSQSEL
[1]; [27]
  pKd: below the threshold
[2]; [27]
  pKd: below the threshold
[3]; [27]
  pKd: below the threshold
[4]; [27]
  pKd: below the threshold
[5]; [27]
  pKd: below the threshold
[6]; [27]
  pKd: below the threshold
[7]; [27]
  pKd: below the threshold
[8]; [27]
  pKd: below the threshold
[9]; [27]
  pKd: 4.27
[10]; [27]
  pKd: below the threshold
[11]; [27]
  pKd: 3.86
[12]; [27]
  pKd: 3.88
[13]; [27]
  pKd: below the threshold
[14]; [27]
  pKd: below the threshold
[15]; [27]
  pKd: 4.74
[16]; [27]
  pKd: below the threshold
[17]; [27]
  pKd: below the threshold
[18]; [27]
  pKd: below the threshold
[19]; [27]
  pKd: below the threshold
[20]; [27]
  pKd: below the threshold
[21]; [27]
  pKd: 4.09
[22]; [27]
  pKd: below the threshold
[23]; [27]
  pKd: below the threshold
[24]; [27]
  pKd: below the threshold
[25]; [27]
  pKd: below the threshold
[26]; [27]
  pKd: below the threshold

B2: PRKD2, Q9BZL6 (peptide)
chain: QGLAERISVL
[1]; [27]
  pKd: 3.54
[2]; [27]
  pKd: below the threshold
[3]; [27]
  pKd: 4.5
[4]; [27]
  pKd: below the threshold
[5]; [27]
  pKd: 3.68
[6]; [27]
  pKd: 4.13
[7]; [27]
  pKd: 3.66
[8]; [27]
  pKd: 4.06
[9]; [27]
  pKd: 5.06
[10]; [27]
  pKd: 4.16
[11]; [27]
  pKd: 4.27
[12]; [27]
  pKd: 4.77
[13]; [27]
  pKd: below the threshold
[14]; [27]
  pKd: below the threshold
[15]; [27]
  pKd: 4.52
[16]; [27]
  pKd: below the threshold
[17]; [27]
  pKd: 4.47
[18]; [27]
  pKd: below the threshold
[19]; [27]
  pKd: below the threshold
[20]; [27]
  pKd: 3.88
[21]; [27]
  pKd: below the threshold
[22]; [27]
  pKd: below the threshold
[23]; [27]
  pKd: 3.64
[24]; [27]
  pKd: 4.71
[25]; [27]
  pKd: below the threshold
[26]; [27]
  pKd: below the threshold

B3: HPV18-E6_-2P, P06463 (peptide)
chain: RLQRRRETQV
[1]; [28]
  pKd: below the threshold
[2]; [28]
  pKd: below the threshold
[3]; [28]
  pKd: below the threshold
[4]; [28]
  pKd: 3.48
[5]; [28]
  pKd: below the threshold
[6]; [28]
  pKd: below the threshold
[7]; [28]
  pKd: below the threshold
[8]; [28]
  pKd: below the threshold
[9]; [28]
  pKd: below the threshold
[10]; [28]
  pKd: below the threshold
[11]; [28]
  pKd: 3.6
[12]; [28]
  pKd: below the threshold
[13]; [28]
  pKd: below the threshold
[14]; [28]
  pKd: below the threshold
[15]; [28]
  pKd: below the threshold
[16]; [28]
  pKd: below the threshold
[17]; [28]
  pKd: below the threshold
[18]; [28]
  pKd: below the threshold
[19]; [28]
  pKd: below the threshold
[20]; [28]
  pKd: 3.75
[21]; [28]
  pKd: below the threshold
[22]; [28]
  pKd: below the threshold
[23]; [28]
  pKd: below the threshold
[24]; [28]
  pKd: below the threshold
[25]; [28]
  pKd: below the threshold
[26]; [28]
  pKd: below the threshold

B4: NLGN2, Q8NFZ4 (peptide)
chain: LPHPHSTTRV
[1]; [27]
  pKd: below the threshold
[2]; [27]
  pKd: below the threshold
[3]; [27]
  pKd: 3.75
[4]; [27]
  pKd: 3.59
[5]; [27]
  pKd: below the threshold
[6]; [27]
  pKd: below the threshold
[7]; [27]
  pKd: 4.16
[8]; [27]
  pKd: 3.97
[9]; [27]
  pKd: 3.84
[10]; [27]
  pKd: below the threshold
[11]; [27]
  pKd: below the threshold
[12]; [27]
  pKd: 3.96
[13]; [27]
  pKd: below the threshold
[14]; [27]
  pKd: below the threshold
[15]; [27]
  pKd: 4.64
[16]; [27]
  pKd: below the threshold
[17]; [27]
  pKd: below the threshold
[18]; [27]
  pKd: below the threshold
[19]; [27]
  pKd: below the threshold
[20]; [27]
  pKd: 3.63
[21]; [27]
  pKd: 3.84
[22]; [27]
  pKd: below the threshold
[23]; [27]
  pKd: below the threshold
[24]; [27]
  pKd: 4.18
[25]; [27]
  pKd: below the threshold
[26]; [27]
  pKd: below the threshold
